Assay results as given in the supplement of paper PMC12667976.
± gives the standard error.

B1: library; numbered along this chain (parent)
chain: MATDAALRRLLRLHRTEIAVAVDSAFPLLHALADHDVVPEDKFQETLHLKEKEGCPQAFHALLSWLLTQDSTAILDFWRVLFKDYNLERYGRLQPILDSFPKDVDLSQPRKGRKPPAVPKALVPPPRLPTKRKASEEARAAAPAALTPRGTASPGSQLKAKPPKKPESSAEQQRLPLGNGIQTMSASVQRAVAMSSGDVPGARGAVEGILIQQVFESGGSKKCIQVGGEFYTPSKFEDSGSGKNKARSSSGPKPLVRAKGAQGAAPGGGEARLGQQGSVPAPLALPSDPQLHQKNEDECAVCRDGGELICCDGCPRAFHLACLSPPLREIPSGTWRCSSCLQATVQEVQPRAEEPRPQEPPVETPLPPGLRSAGEEVRGPPGEPLAGMDTTLVYKHLPAPPSAAPLPGLDSSALHPLLCVGPEGQQNLAPGARCGVCGDGTDVLRCTHCAAAFHWRCHFPAGTSRPGTGLRCRSCSGDVTPAPVEGVLAPSPARLAPGPAKDDTASHEPALHRDDLESLLSEHTFDGILQWAIQSMARPAAPFPS

Variants of: B1
Assay: AIRE transcriptional activation functional score (insulin promoter-GFP; nonsense median 0, synonymous median 1) (normalised score); higher = higher AIRE activity (more reporter activation)
Conditions: with insulin promoter-GFP reporter in HEK293
Method in brief: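 Functional scores come from comparing select with non-select enrichment of each variant and subtracting wild type. Codon-optimized AIRE NNN-codon libraries across three regions were integrated via Bxb1 recombinase into HEK293 landing-pad cells with an insulin core promoter-GFP reporter, and integrants sorted at day 7 were expanded 7 days before top 10% GFP and unselected populations were tile-sequenced. Variants needed 10 counts per million in non-select, and values were rescaled to nonsense median 0 and synonymous median 1 before averaging over biological replicates.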

Variant	AIRE transcriptional activation functional score
Y90N	0.194 ± 0.62
E353W	1.17 ± 0.028
E353L	1.18 ± 0.15
E353G	0.959 ± 0.24
T364D	0.191 ± 0.15
A61Q	0.472 ± 0.21
A6Q	1.03 ± 0.075
R132P	-0.258 ± 0.42
R303I	1.32 ± 0.1
V484W	1.18 ± 0.11
S107L	1.05 ± 0.81
E51R	0.215 ± 0.32
G208Y	-0.0457 ± 0.088
L87I	1.66 ± 0.18
R471F	1.09 ± 0.21
R433A	0.402 ± 0.44
L67A	0.0875 ± 0.38
L67N	0.265 ± 0.11
A505T	-0.258 ± 0.53
C55F	0.897 ± 0.1
K259C	1.33 ± 0.045
P355H	1.08 ± 0.14
V436P	0.39 ± 0.15
M536P	0.215 ± 0.085

Variant	AIRE transcriptional activation functional score
P481H	1.14 ± 0.073
R272A	0.71 ± 0.27
S249G	1.22 ± 0.26
S249F	0.707 ± 0.2
R110S	1.01 ± 0.43
F543R	0.296 ± 0.13
A144L	1.17 ± 0.38
A205M	-0.0564 ± 0.17
E229V	0.158 ± 0.15
R465V	0.453 ± 0.28
G240V	0.921 ± 0.076
F459V	0.585 ± 0.15
C310S	0.768 ± 0.27
L392F	1.15 ± 0.14
A500Q	1.34 ± 0.12
Q534H	0.807 ± 0.086
R257N	-1.39 ± 0.2
Q57T	0.369 ± 0.64
S412G	1.03 ± 0.3
P95A	1.12 ± 0.54
H454K	0.0788 ± 0.13
L11W	0.256 ± 0.083
S506I	1.63 ± 0.2
S506N	0.728 ± 0.11

Variant	AIRE transcriptional activation functional score
S195H	0.996 ± 0.13
S195L	0.116 ± 0.12
G227Q	1.02 ± 0.26
G227H	0.263 ± 0.3
G227T	-0.68 ± 0.35
R79T	-2.81 ± 0.52
C337P	1.47 ± 0.19
A284H	0.932 ± 0.3
C449W	0.0652 ± 0.069
C449N	-0.014 ± 0.099
R203S	0.794 ± 0.14
R203H	0.141 ± 0.1
A461G	1.29 ± 0.17
A461S	1.22 ± 0.23
K111N	1.36 ± 0.24
L417S	0.626 ± 0.26
V348F	1 ± 0.03
S521W	0.299 ± 0.049
S521M	0.76 ± 0.13
E423K	0.795 ± 0.058
T524S	1.61 ± 0.24
Q276W	0.869 ± 0.12
L10D	0.416 ± 0.19
G462Y	1.24 ± 0.089

Variant	AIRE transcriptional activation functional score
Q349M	0.852 ± 0.023
P124H	0.958 ± 0.27
K245W	0.978 ± 0.06
W65F	0.122 ± 0.3
V80R	-0.324 ± 0.6
D478R	0.412 ± 0.24
C446P	0.448 ± 0.13
C446I	0.167 ± 0.25
G333L	1.17 ± 0.33
L470E	0.628 ± 0.14
A404M	0.918 ± 0.11
H14F	0.561 ± 0.32
P148L	1.45 ± 0.61
P148Q	1.14 ± 0.68
P380N	1.52 ± 0.1
P398F	1.43 ± 0.31
S324L	1.11 ± 0.22
S324Q	0.407 ± 0.052
D4H	-0.661 ± 0.68
R445V	0.784 ± 0.24
A138F	1.13 ± 0.21
Q212L	-0.00712 ± 0.26
Q212G	0.371 ± 0.2
P384W	1.61 ± 0.039

Variant	AIRE transcriptional activation functional score
G379S	1.37 ± 0.097
P126Y	-0.0102 ± 0.2
P126F	0.304 ± 0.22
P126V	0.0693 ± 0.094
L81R	-0.201 ± 0.48
L81C	0.822 ± 0.12
E522D	0.925 ± 0.26
V20H	-0.433 ± 0.067
E307H	1.11 ± 0.061
E307N	1.41 ± 0.1
G228L	-1.11 ± 0.33
R12W	-0.0189 ± 0.097
R12V	0.442 ± 0.52
N295G	0.969 ± 0.24
N295H	0.879 ± 0.46
G369A	0.861 ± 0.17
Q44Y	0.0762 ± 0.39
Q44D	0.948 ± 0.073
Q44H	-0.545 ± 0.61
S474G	0.801 ± 0.26
D442S	0.83 ± 0.2
G267P	0.902 ± 0.036
K159H	1.18 ± 0.71
K159A	0.394 ± 0.53

Variant	AIRE transcriptional activation functional score
G180D	0.474 ± 0.23
I18E	0.682 ± 0.3
E354L	1.05 ± 0.2
G242C	1.06 ± 0.092
L75C	0.732 ± 0.28
L75W	2.01 ± 0.082
L75Y	1.52 ± 0.12
L406Q	1.11 ± 0.32
S491G	0.752 ± 0.26
V362N	1.3 ± 0.081
V362A	1.13 ± 0.15
W455E	1.17 ± 0.072
L520R	0.181 ± 0.11
K501M	0.223 ± 0.079
P163V	0.445 ± 0.58
P163N	1.73 ± 0.28
L62P	-0.295 ± 0.47
L62V	0.0204 ± 0.24
L97H	2.81 ± 0.29
L97F	1.29 ± 0.34
S99H	0.569 ± 0.12
E40Y	-0.301 ± 0.13
E40S	0.167 ± 0.41
A541N	0.974 ± 0.061

Variant	AIRE transcriptional activation functional score
D439P	0.0529 ± 0.088
E237W	0.832 ± 0.035
H48Y	1.23 ± 0.53
R351T	0.615 ± 0.22
R351Y	0.693 ± 0.3
A58L	0.0439 ± 0.2
E171S	1.96 ± 0.47
C472K	0.158 ± 0.12
C472Y	0.117 ± 0.072
S135E	1.38 ± 0.099
L7I	0.982 ± 0.18
C475A	0.119 ± 0.18
R89A	0.812 ± 0.13
A5D	0.947 ± 0.62
P381G	1.11 ± 0.23
G421V	0.933 ± 0.21
L273A	0.967 ± 0.28
R139D	0.568 ± 0.48
S153M	1.09 ± 0.36
L29R	0.468 ± 0.39
L29Y	-0.0248 ± 0.12
L320T	1.13 ± 0.24
T151D	1.27 ± 0.33
